4 molecules from paper PMC11476177 can be followed below.

Data set [1] concerns the target His-p65 (UniProt Q04206). As to the kind of experiment: SPR. The note with it: SPR: 10 mM HEPES, 150 mM NaCl, 3 mM EDTA, 0.05% P20, pH not stated, room temp, EMSA: 10 mM Tris-HCl pH 7.5, 10 mM NaCl, 40 mM KCl, 1 mM MgCl2, 1 mM EDTA.
The target of data set [2] is T1, His-TonEBP sNT (UniProt O94916 1-548).
T1 sequence: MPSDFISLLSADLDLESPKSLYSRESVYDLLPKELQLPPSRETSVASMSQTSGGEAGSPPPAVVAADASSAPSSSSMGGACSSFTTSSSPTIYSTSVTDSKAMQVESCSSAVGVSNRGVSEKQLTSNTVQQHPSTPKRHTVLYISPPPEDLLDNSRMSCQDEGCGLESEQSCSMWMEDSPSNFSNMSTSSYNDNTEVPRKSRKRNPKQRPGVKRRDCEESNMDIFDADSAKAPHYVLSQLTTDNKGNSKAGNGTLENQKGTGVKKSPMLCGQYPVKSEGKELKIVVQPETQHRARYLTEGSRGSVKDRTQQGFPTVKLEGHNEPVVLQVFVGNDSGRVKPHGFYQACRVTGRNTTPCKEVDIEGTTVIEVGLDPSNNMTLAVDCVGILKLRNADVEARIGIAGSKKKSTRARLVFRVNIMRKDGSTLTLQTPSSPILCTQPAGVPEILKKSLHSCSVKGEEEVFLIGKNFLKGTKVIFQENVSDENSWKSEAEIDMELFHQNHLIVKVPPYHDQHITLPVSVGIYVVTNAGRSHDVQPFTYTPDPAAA
Put plainly: SPR; SPR: 10 mM HEPES, 150 mM NaCl, 3 mM EDTA, 0.05% P20, pH not stated, room temp; EMSA: 10 mM Tris-HCl pH 7.5, 10 mM NaCl, 40 mM KCl, 1 mM MgCl2, 1 mM EDTA, 1 mM DTT, 50 ug/mL BSA, 100 nM probe, 25 min room temp, 0.8% agarose. Particulars: protein: recombinant; tags: N-terminal His; chain copies: 2; label: biotin (SPR), 5' end of strand 1 as printed; text says dsDNA, only one strand given.

Chain of His-p65 (Q04206 whole entry): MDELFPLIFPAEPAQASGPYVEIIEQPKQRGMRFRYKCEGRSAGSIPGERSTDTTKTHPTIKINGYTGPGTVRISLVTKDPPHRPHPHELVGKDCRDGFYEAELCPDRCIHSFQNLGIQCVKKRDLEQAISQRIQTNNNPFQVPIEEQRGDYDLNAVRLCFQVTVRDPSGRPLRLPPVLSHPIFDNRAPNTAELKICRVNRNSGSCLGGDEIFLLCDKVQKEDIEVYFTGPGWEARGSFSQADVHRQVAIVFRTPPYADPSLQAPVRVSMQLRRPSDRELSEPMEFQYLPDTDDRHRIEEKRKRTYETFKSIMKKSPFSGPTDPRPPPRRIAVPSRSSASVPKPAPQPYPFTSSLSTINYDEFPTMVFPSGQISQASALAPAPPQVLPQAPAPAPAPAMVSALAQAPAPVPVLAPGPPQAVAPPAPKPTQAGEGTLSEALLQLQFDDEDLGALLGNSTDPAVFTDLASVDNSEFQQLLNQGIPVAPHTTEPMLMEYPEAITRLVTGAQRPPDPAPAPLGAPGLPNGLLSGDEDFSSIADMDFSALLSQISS

In turn, “ATAGGAAAACTGAAAGGGAGAAGTGAAAGTGGGAAATTCC (double strand) [Probe IRF3/p65]” showed a Kd in data set [1] of 11.5 nM. Turning to “AATGTAAGTGGGAAATTCCTCTGAATA (double strand) [Probe p65]”, the Kd in data set [1] worked out at 35.2 nM.

B1: Probe IRF3/p65 (dsDNA)
DNA 1: ATAGGAAAACTGAAAGGGAGAAGTGAAAGTGGGAAATTCC
DNA 2: GGAATTTCCCACTTTCACTTCTCCCTTTCAGTTTTCCTAT
As to B1, the Kd in data set [2] worked out at 31.3 nM.

B2: Probe p65 (dsDNA)
DNA 1: AATGTAAGTGGGAAATTCCTCTGAATA
DNA 2: TATTCAGAGGAATTTCCCACTTACATT
As for B2, in data set [2], the Kd is 84.7 nM.
